Reference: US20200216536A1 (published 2020)
Where “and” joins values, the source holds several entries; their conditions need not be identical. Equal entries are not always repeated.

Experiments:
[1] = target: T1, canine FcRn (UniProtKB-E2ROL6 [FcRn] and UniProtKB-E2RN10 [canine beta-2-microglobulin]) (canine); assay: SPR Biacore 8K, pH 5.5, Fc captured on BSA via SASA tag, FcRn 400 nM
T1 construct: Soluble analyte injected in SPR

[2] = target: T1, canine FcRn (UniProtKB-E2ROL6 [FcRn] …); assay: SPR Biacore 8K, pH 5.5, Fc captured on BSA via SASA tag, FcRn 200 nM
[3] = target: T1, canine FcRn (UniProtKB-E2ROL6 [FcRn] …); assay: SPR Biacore 8K, pH 5.5, Fc captured on BSA via SASA tag, FcRn 100-800 nM

| Binder | Kd [1] | kon [1] | koff [1] | further results |
| --- | --- | --- | --- | --- |
| canine IgG.B Fc (CH2-CH3) variant M428A (Fc fusion) APEMLGGPSVFIFPPKPKDTLLIARTPEVTCVVVDLDPEDPEVQISWFVDGKQMQTAKTQPREEQFNGTYRVVSVLPIGHQDWLKGKQFTCKVNNKALPSPIERTISKARGQAHQPSVYVLPPSREELSKNTVSLTCLIKDFFPPDIDVEWQSNGQQEPESKYRTTPPQLDEDGSYFLYSKLSVDKSRWQRGDTFICAVAHEALHNHYTQESLSHSPGK | 723 nM and 1670 nM | 234000 M⁻¹ s⁻¹ and 318000 M⁻¹ s⁻¹ |  |  |
| canine IgG.B Fc (CH2-CH3) variant L252A (Fc fusion) APEMLGGPSVFIFPPKPKDTLAIARTPEVTCVVVDLDPEDPEVQISWFVDGKQMQTAKTQPREEQFNGTYRVVSVLPIGHQDWLKGKQFTCKVNNKALPSPIERTISKARGQAHQPSVYVLPPSREELSKNTVSLTCLIKDFFPPDIDVEWQSNGQQEPESKYRTTPPQLDEDGSYFLYSKLSVDKSRWQRGDTFICAVMHEALHNHYTQESLSHSPGK | 292 nM and 240 nM |  |  |  |
| canine IgG.B Fc (CH2-CH3) variant H433A (Fc fusion) APEMLGGPSVFIFPPKPKDTLLIARTPEVTCVVVDLDPEDPEVQISWFVDGKQMQTAKTQPREEQFNGTYRVVSVLPIGHQDWLKGKQFTCKVNNKALPSPIERTISKARGQAHQPSVYVLPPSREELSKNTVSLTCLIKDFFPPDIDVEWQSNGQQEPESKYRTTPPQLDEDGSYFLYSKLSVDKSRWQRGDTFICAVMHEALANHYTQESLSHSPGK | 266 nM and 359 nM |  | 0.229 s⁻¹ and 0.0997 s⁻¹ |  |
| canine IgG.B Fc (CH2-CH3) variant N434A (Fc fusion) APEMLGGPSVFIFPPKPKDTLLIARTPEVTCVVVDLDPEDPEVQISWFVDGKQMQTAKTQPREEQFNGTYRVVSVLPIGHQDWLKGKQFTCKVNNKALPSPIERTISKARGQAHQPSVYVLPPSREELSKNTVSLTCLIKDFFPPDIDVEWQSNGQQEPESKYRTTPPQLDEDGSYFLYSKLSVDKSRWQRGDTFICAVMHEALHAHYTQESLSHSPGK | 457 nM and 494 nM | 518000 M⁻¹ s⁻¹ and 966000 M⁻¹ s⁻¹ | 0.237 s⁻¹ and 0.477 s⁻¹ | Kd [2]: 573 nM and 629 nM; koff [2]: 0.156 s⁻¹ and 0.164 s⁻¹; kon [2]: 272000 M⁻¹ s⁻¹ and 261000 M⁻¹ s⁻¹ |
| canine IgG.B Fc (CH2-CH3) variant Y436A (Fc fusion) APEMLGGPSVFIFPPKPKDTLLIARTPEVTCVVVDLDPEDPEVQISWFVDGKQMQTAKTQPREEQFNGTYRVVSVLPIGHQDWLKGKQFTCKVNNKALPSPIERTISKARGQAHQPSVYVLPPSREELSKNTVSLTCLIKDFFPPDIDVEWQSNGQQEPESKYRTTPPQLDEDGSYFLYSKLSVDKSRWQRGDTFICAVMHEALHNHATQESLSHSPGK | 393 nM and 876 nM |  | 0.407 s⁻¹ and 0.213 s⁻¹ |  |
| canine IgG.B Fc (CH2-CH3) variant A254S (Fc fusion) APEMLGGPSVFIFPPKPKDTLLISRTPEVTCVVVDLDPEDPEVQISWFVDGKQMQTAKTQPREEQFNGTYRVVSVLPIGHQDWLKGKQFTCKVNNKALPSPIERTISKARGQAHQPSVYVLPPSREELSKNTVSLTCLIKDFFPPDIDVEWQSNGQQEPESKYRTTPPQLDEDGSYFLYSKLSVDKSRWQRGDTFICAVMHEALHNHYTQESLSHSPGK | 340 nM and 317 nM |  |  |  |
| canine IgG.B Fc (CH2-CH3) variant T256A (Fc fusion) APEMLGGPSVFIFPPKPKDTLLIARAPEVTCVVVDLDPEDPEVQISWFVDGKQMQTAKTQPREEQFNGTYRVVSVLPIGHQDWLKGKQFTCKVNNKALPSPIERTISKARGQAHQPSVYVLPPSREELSKNTVSLTCLIKDFFPPDIDVEWQSNGQQEPESKYRTTPPQLDEDGSYFLYSKLSVDKSRWQRGDTFICAVMHEALHNHYTQESLSHSPGK | 447 nM and 298 nM |  |  |  |
| canine IgG.B Fc (CH2-CH3) variant N434Y (Fc fusion) APEMLGGPSVFIFPPKPKDTLLIARTPEVTCVVVDLDPEDPEVQISWFVDGKQMQTAKTQPREEQFNGTYRVVSVLPIGHQDWLKGKQFTCKVNNKALPSPIERTISKARGQAHQPSVYVLPPSREELSKNTVSLTCLIKDFFPPDIDVEWQSNGQQEPESKYRTTPPQLDEDGSYFLYSKLSVDKSRWQRGDTFICAVMHEALHYHYTQESLSHSPGK |  |  |  | Kd [2]: 15.9 nM; koff [2]: 0.00968 s⁻¹; kon [2]: 607000 M⁻¹ s⁻¹; Kd [3]: 29.1 nM; koff [3]: 0.0151 s⁻¹; kon [3]: 520000 M⁻¹ s⁻¹ |
| canine IgG.B Fc (CH2-CH3) variant T250A (Fc fusion) APEMLGGPSVFIFPPKPKDALLIARTPEVTCVVVDLDPEDPEVQISWFVDGKQMQTAKTQPREEQFNGTYRVVSVLPIGHQDWLKGKQFTCKVNNKALPSPIERTISKARGQAHQPSVYVLPPSREELSKNTVSLTCLIKDFFPPDIDVEWQSNGQQEPESKYRTTPPQLDEDGSYFLYSKLSVDKSRWQRGDTFICAVMHEALHNHYTQESLSHSPGK | 335 nM and 328 nM |  |  |  |
| canine IgG.B Fc (CH2-CH3) variant N434S (Fc fusion) APEMLGGPSVFIFPPKPKDTLLIARTPEVTCVVVDLDPEDPEVQISWFVDGKQMQTAKTQPREEQFNGTYRVVSVLPIGHQDWLKGKQFTCKVNNKALPSPIERTISKARGQAHQPSVYVLPPSREELSKNTVSLTCLIKDFFPPDIDVEWQSNGQQEPESKYRTTPPQLDEDGSYFLYSKLSVDKSRWQRGDTFICAVMHEALHSHYTQESLSHSPGK |  |  |  | Kd [2]: 924 nM and 1050 nM; koff [2]: 0.207 s⁻¹ and 0.209 s⁻¹; kon [2]: 225000 M⁻¹ s⁻¹ and 199000 M⁻¹ s⁻¹ |
| canine IgG.B Fc (CH2-CH3) variant N434H (Fc fusion) APEMLGGPSVFIFPPKPKDTLLIARTPEVTCVVVDLDPEDPEVQISWFVDGKQMQTAKTQPREEQFNGTYRVVSVLPIGHQDWLKGKQFTCKVNNKALPSPIERTISKARGQAHQPSVYVLPPSREELSKNTVSLTCLIKDFFPPDIDVEWQSNGQQEPESKYRTTPPQLDEDGSYFLYSKLSVDKSRWQRGDTFICAVMHEALHHHYTQESLSHSPGK |  |  |  | Kd [3]: 247 nM; koff [3]: 0.102 s⁻¹; kon [3]: 411000 M⁻¹ s⁻¹ |
| canine IgG.B Fc (CH2-CH3) YTE variant (L252Y/A254T/T256E) (Fc fusion) APEMLGGPSVFIFPPKPKDTLYITREPEVTCVVVDLDPEDPEVQISWFVDGKQMQTAKTQPREEQFNGTYRVVSVLPIGHQDWLKGKQFTCKVNNKALPSPIERTISKARGQAHQPSVYVLPPSREELSKNTVSLTCLIKDFFPPDIDVEWQSNGQQEPESKYRTTPPQLDEDGSYFLYSKLSVDKSRWQRGDTFICAVMHEALHNHYTQESLSHSPGK |  |  |  | Kd [3]: 184 nM; koff [3]: 0.046 s⁻¹; kon [3]: 250000 M⁻¹ s⁻¹ |
| canine IgG.B Fc (CH2-CH3) variant Q285A (Fc fusion) APEMLGGPSVFIFPPKPKDTLLIARTPEVTCVVVDLDPEDPEVQISWFVDGKQMATAKTQPREEQFNGTYRVVSVLPIGHQDWLKGKQFTCKVNNKALPSPIERTISKARGQAHQPSVYVLPPSREELSKNTVSLTCLIKDFFPPDIDVEWQSNGQQEPESKYRTTPPQLDEDGSYFLYSKLSVDKSRWQRGDTFICAVMHEALHNHYTQESLSHSPGK | 341 nM and 257 nM |  |  |  |
| canine IgG.B Fc (CH2-CH3) variant T286A (Fc fusion) APEMLGGPSVFIFPPKPKDTLLIARTPEVTCVVVDLDPEDPEVQISWFVDGKQMQAAKTQPREEQFNGTYRVVSVLPIGHQDWLKGKQFTCKVNNKALPSPIERTISKARGQAHQPSVYVLPPSREELSKNTVSLTCLIKDFFPPDIDVEWQSNGQQEPESKYRTTPPQLDEDGSYFLYSKLSVDKSRWQRGDTFICAVMHEALHNHYTQESLSHSPGK | 464 nM and 569 nM | 422000 M⁻¹ s⁻¹ and 533000 M⁻¹ s⁻¹ | 0.196 s⁻¹ and 0.304 s⁻¹ |  |
| canine IgG.B Fc (CH2-CH3) variant P307A (Fc fusion) APEMLGGPSVFIFPPKPKDTLLIARTPEVTCVVVDLDPEDPEVQISWFVDGKQMQTAKTQPREEQFNGTYRVVSVLAIGHQDWLKGKQFTCKVNNKALPSPIERTISKARGQAHQPSVYVLPPSREELSKNTVSLTCLIKDFFPPDIDVEWQSNGQQEPESKYRTTPPQLDEDGSYFLYSKLSVDKSRWQRGDTFICAVMHEALHNHYTQESLSHSPGK | 325 nM and 338 nM |  |  |  |
| canine IgG.B Fc (CH2-CH3) variant I308A (Fc fusion) APEMLGGPSVFIFPPKPKDTLLIARTPEVTCVVVDLDPEDPEVQISWFVDGKQMQTAKTQPREEQFNGTYRVVSVLPAGHQDWLKGKQFTCKVNNKALPSPIERTISKARGQAHQPSVYVLPPSREELSKNTVSLTCLIKDFFPPDIDVEWQSNGQQEPESKYRTTPPQLDEDGSYFLYSKLSVDKSRWQRGDTFICAVMHEALHNHYTQESLSHSPGK | 472 nM and 563 nM | 357000 M⁻¹ s⁻¹ and 345000 M⁻¹ s⁻¹ | 0.169 s⁻¹ and 0.194 s⁻¹ |  |
| canine IgG.B Fc (CH2-CH3) variant G309A (Fc fusion) APEMLGGPSVFIFPPKPKDTLLIARTPEVTCVVVDLDPEDPEVQISWFVDGKQMQTAKTQPREEQFNGTYRVVSVLPIAHQDWLKGKQFTCKVNNKALPSPIERTISKARGQAHQPSVYVLPPSREELSKNTVSLTCLIKDFFPPDIDVEWQSNGQQEPESKYRTTPPQLDEDGSYFLYSKLSVDKSRWQRGDTFICAVMHEALHNHYTQESLSHSPGK | 245 nM and 294 nM |  |  |  |
| canine IgG.B Fc (CH2-CH3) variant Q311A (Fc fusion) APEMLGGPSVFIFPPKPKDTLLIARTPEVTCVVVDLDPEDPEVQISWFVDGKQMQTAKTQPREEQFNGTYRVVSVLPIGHADWLKGKQFTCKVNNKALPSPIERTISKARGQAHQPSVYVLPPSREELSKNTVSLTCLIKDFFPPDIDVEWQSNGQQEPESKYRTTPPQLDEDGSYFLYSKLSVDKSRWQRGDTFICAVMHEALHNHYTQESLSHSPGK | 368 nM and 370 nM | 2.43e+06 M⁻¹ s⁻¹ and 1.34e+06 M⁻¹ s⁻¹ | 0.894 s⁻¹ and 0.496 s⁻¹ |  |
| canine IgG.B Fc (CH2-CH3) variant K315A (Fc fusion) APEMLGGPSVFIFPPKPKDTLLIARTPEVTCVVVDLDPEDPEVQISWFVDGKQMQTAKTQPREEQFNGTYRVVSVLPIGHQDWLAGKQFTCKVNNKALPSPIERTISKARGQAHQPSVYVLPPSREELSKNTVSLTCLIKDFFPPDIDVEWQSNGQQEPESKYRTTPPQLDEDGSYFLYSKLSVDKSRWQRGDTFICAVMHEALHNHYTQESLSHSPGK | 422 nM and 548 nM |  |  |  |
| canine IgG.B Fc (CH2-CH3) variant D378A (Fc fusion) APEMLGGPSVFIFPPKPKDTLLIARTPEVTCVVVDLDPEDPEVQISWFVDGKQMQTAKTQPREEQFNGTYRVVSVLPIGHQDWLKGKQFTCKVNNKALPSPIERTISKARGQAHQPSVYVLPPSREELSKNTVSLTCLIKDFFPPDIAVEWQSNGQQEPESKYRTTPPQLDEDGSYFLYSKLSVDKSRWQRGDTFICAVMHEALHNHYTQESLSHSPGK | 673 nM and 592 nM | 272000 M⁻¹ s⁻¹ and 306000 M⁻¹ s⁻¹ | 0.183 s⁻¹ and 0.181 s⁻¹ |  |
